{
  "source": "patent US20220411511A1",
  "about": "(STCUBE, published 2022)",
  "binders": {"B1": {"name": "anti-glycCTLA-4 monoclonal antibody STC1807 (antibody, V domains shown)", "VH": "EVQLQQSGAELVRPGALVKLSCKASGFNIKDYYMNWVKQRPEQGLEWIGWIDPENGNTIYDPKFQGKASIIADTSSNTAYLQLSSLTSEDTAVYYCARKWSYTMDYWGQGTSVTVSS", "VL": "QIVLTQSPALMSASPGEKVTMTCSASSFVGYMYWYQQKPRSSPKPWIYLTSNLASGVPGRFSGSGSGTSYSLTISNMEAEDAATYYCQQWSSNPLTFGAGTKLELK", "notes": "Mouse hybridoma monoclonal antibody (BALB/c), kappa light chain; also called MAb STC1807"}, "B2": {"name": "human chimera of STC1807 (hSTC1807) (antibody, V domains shown)", "VH": "EVQLQQSGAELVRPGALVKLSCKASGFNIKDYYMNWVKQRPEQGLEWIGWIDPENGNTIYDPKFQGKASIIADTSSNTAYLQLSSLTSEDTAVYYCARKWSYTMDYWGQGTSVTVSS", "VL": "QIVLTQSPALMSASPGEKVTMTCSASSFVGYMYWYQQKPRSSPKPWIYLTSNLASGVPGRFSGSGSGTSYSLTISNMEAEDAATYYCQQWSSNPLTFGAGTKLELKR", "notes": "domain: kappa constant region of pFUSEss-CLIg-hK; Mouse constant regions replaced by human ones; also called human chimera STC1807; chimeric antibody (hSTC1807); not shown: human IgG1 constant region (CH1-CH3) from vector pFUSEss-CHIg-hG1 (Invivogen)"}},
  "key": {"CTLA-4-His [1]": {"target": "T1, CTLA-4-His (human, UniProt P16410 36-161, limits assumed, N-linked glycosylation at N113 and N145 (heavily glycosylated))", "T1 construct": "also called antigen CTLA-4-His; not shown: His tag", "T1 sequence": "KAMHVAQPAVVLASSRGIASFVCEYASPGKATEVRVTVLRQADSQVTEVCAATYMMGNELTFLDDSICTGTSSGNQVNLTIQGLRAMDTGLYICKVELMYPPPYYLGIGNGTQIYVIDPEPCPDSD", "test": "Octet BLI, antibody loaded on sensor, 1:1 fit", "protocol": "KD determination and binning by Octet. […] Baseline was established in PBS containing 1 mg/ml bovine serum albumin (assay buffer), the association step was performed by submerging the sensors in a single concentration of analyte in assay buffer. Dissociation was performed and monitored in fresh assay buffer. All experiments were performed with sensor shaking at 1,000 rpm. ForteBio's data analysis software was used to fit the data to a 1:1 binding model to extract an association rate and dissociation rate. The KD was calculated using the ratio kd/kₐ. In a typical epitope binning assay, antigen CTLA-4-His (10 nM) was preincubated with the second antibody (10 nM) for 1 h at room temperature. Control antibody (20 nM) was loaded onto AMC sensors (ForteBio) and remaining Fc-binding sites on the sensor were blocked with a whole mouse IgG antibody (Jackson ImmunoResearch). The sensors were exposed to preinculated antigen-second antibody mixture. Raw data was processed using ForteBio's Data Analysis Software 7.0 and the antibody pairs were assessed for competitive binding.\nThe baseline was established in PBS containing 1 mg/mL bovine serum albumin (assay buffer), and the association step was performed by submerging the sensors in a single concentration of analyte in assay buffer. Dissociation was performed and monitored in fresh assay buffer. All experiments were performed with the sensor shaking at 1,000 rotations per minute. ForteBio (Menlo Park, Calif., USA) data analysis software was used to fit the data to a 1:1 binding model to extract an association rate and dissociation rate. KD was calculated using the ratio kd:ka."}, "[2]": {"target": "T2, CTLA-4 WT expressed on 293T cells (human, UniProt P16410 36-223, N-linked glycosylation at N113 and N145)", "T2 construct": "also called wild type CTLA-4; Flag-tagged CTLA-4 WT", "T2 sequence": "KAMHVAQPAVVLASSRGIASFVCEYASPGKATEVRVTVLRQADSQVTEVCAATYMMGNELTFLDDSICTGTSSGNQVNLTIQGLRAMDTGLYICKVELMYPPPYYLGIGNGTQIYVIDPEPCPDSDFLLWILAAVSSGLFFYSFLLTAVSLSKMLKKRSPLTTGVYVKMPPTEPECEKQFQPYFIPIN", "test": "IncuCyte, inhibition of CD86-Fc binding to 293T cells expressing CTLA-4", "protocol": "(§1) The green fluorescent signals were measured every 2 hours and quantified using an IncuCyte Zoom system (Essen BioScience)."}, "[3]": {"target": "T3, CTLA-4 2NQ (non-glycosylated form) expressed in 293T cells (human, UniProt P16410 36-223)", "T3 construct": "also called CTLA-4 2NQ mutant; unglycosylated CTLA-4", "test": "blot under native condition of 293T cells expressing flag-tagged CTLA-4"}, "[4]": {"target": "T4, CTLA-4 N113Q mutant expressed in 293T cells (human, UniProt P16410 36-223)", "T4 construct": "Flag-tagged; single-glycosylated (only N145 can carry a glycan); Tested by Western blot", "test": "blot under native condition of 293T cells expressing flag-tagged CTLA-4"}, "[5]": {"target": "T5, CTLA-4 N145Q mutant expressed in 293T cells (human, UniProt P16410 36-223)", "T5 construct": "Flag-tagged; single-glycosylated (only N113 can carry a glycan); Tested by Western blot", "test": "blot under native condition of 293T cells expressing flag-tagged CTLA-4"}, "CTLA-4-His [6]": {"target": "T1, CTLA-4-His", "test": "Biacore X100 SPR, antibody captured on CM5 chip, six concentrations of CTLA4, 1:1 fit", "protocol": "KD determination was performed via surface plasmon resonance using a Biacore X100 instrument (GE Healthcare, Uppsala, Sweden). […] was immobilized on a research-grade CM5 chip using standard procedures, and antibody was flowed over the chip at 2 μg/mL in HBS-EP⁺ buffer. Next, six concentrations of CTLA4, each a 2-fold dilution, were passed over the chip. Sensorgram data were analyzed by Biacore X100 evaluation software version 2.0.1 with 1:1 binding kinetics."}, "[7]": {"target": "T2, CTLA-4 WT expressed on 293T cells", "test": "IncuCyte, inhibition of CD86-Fc binding to CTLA-4-expressing cells; human chimera hSTC1807 (FIG. 8B), not the mouse STC1807 of FIG. 7B (2.189 µg/mL)", "protocol": "as §1"}},
  "data": [
    {"binder": "B1", "values": [
      {"measurement": "Kd", "setting": "CTLA-4-His [1]", "value": 1.86, "unit": "nM"},
      {"measurement": "koff", "setting": "CTLA-4-His [1]", "value": 0.000499, "unit": "s⁻¹"},
      {"measurement": "kon", "setting": "CTLA-4-His [1]", "value": 268000, "unit": "M⁻¹ s⁻¹"},
      {"measurement": "EC50", "setting": "[2]", "value": 2.19, "unit": "µg/mL"},
      {"measurement": "binding result", "setting": "[3]", "value": "no binding"},
      {"measurement": "binding result", "setting": "[4]", "value": "no binding"},
      {"measurement": "binding result", "setting": "[5]", "value": "binds"},
      {"measurement": "Kd", "setting": "CTLA-4-His [6]", "value": 0.469, "unit": "nM"},
      {"measurement": "koff", "setting": "CTLA-4-His [6]", "value": 0.000217, "unit": "s⁻¹"},
      {"measurement": "kon", "setting": "CTLA-4-His [6]", "value": 463000, "unit": "M⁻¹ s⁻¹"}
    ]},
    {"binder": "B2", "values": [
      {"measurement": "EC50", "setting": "[7]", "value": 0.331, "unit": "µg/mL"}
    ]}
  ]
}
